Our source for the protein stability index values is the supplement of paper PMC10724198.

± gives the standard deviation of the averaged measurements.
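Also: PSI is a weighted mean of sequencing reads over stability bins, variants kept only with over 10 reads, mCherry proximal and sfGFP distal, peptide attached via GGGS linker.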

In this series the test system is Saccharomyces cerevisiae. The experiment in a line: protein stability index of tFT-peptide fusion (C-terminal peptide) (PSI (0-1 scale)); higher = more stable (slower turnover). The following applies: genetic background: wild type; temperature: 30 C. The protocol: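 Multiplexed protein stability (MPS) profiling in S. cerevisiae. Random 12-aa peptides (tFT-X12 library) are fused to the C-terminus of a sfGFP-mCherry tandem fluorescent timer, after mCherry and a GGGS linker. Cells are FACS-sorted into 8 mCherry/sfGFP bins and deep-sequenced. The protein stability index (PSI) is the read-weighted bin average, scaled from 0 (unstable) to 1 (stable). Only peptides with >10 reads are reported; cells were grown at 30 °C in SC-His with glucose.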
Take GDRSKECAMKNG: the protein stability index came to 0.67 ± 0.013.
Next, GDVLLLGGAGER: 0.671 ± 0.07; GDVPHRIEGEFL: 0.788 ± 0.038.
GDYITIGGGLIW registered a protein stability index of 0.759 ± 0.017.
With GEAEGGEEYGEG, the protein stability index amounted to 0.636 ± 0.017.
The figure for GEARVGGRWWSK is 0.7722 ± 0.0071.
The figure for GECASVFSSGFF is 0.72 ± 0.17; for GEDRLSPVGWDR it is 0.702 ± 0.035; for GEGNRVPNPSRP it is 0.669 ± 0.022.
As to GEGRGRTETEMK, the protein stability index is 0.682 ± 0.033.
The figure for GEGTQGVSIGPR is 0.711 ± 0.015; for GEIGVRGYQAEE it is 0.739 ± 0.029.
GEKEARRKKVSM registered a protein stability index of 0.749 ± 0.071.
The figure for GEKKTNHEPGAS is 0.759 ± 0.06; for GELLLVAGMHWL it is 0.681 ± 0.023; for GERHTGTLRRPD it is 0.701 ± 0.065.
Next, GERLGECGGGVG: 0.6652 ± 0.0021; GESAWWRSFGDV: 0.791 ± 0.11.
The figure for GESRVGMRRGGR is 0.667 ± 0.029; for GETGRGRRPRSQ it is 0.667 ± 0.062; for GEVGTVEGGATG it is 0.69596 ± 7e-05.
For the sequence GEVMLRYQRISF, the protein stability index came to 0.713 ± 0.018.
The figure for GFEWWCQSVSVG is 0.688 ± 0.018; for GFGWYVPESWSS it is 0.616 ± 0.043; for GFIDGSTVRTCL it is 0.64 ± 0.054.
The figure for GFISVGVYPVVR is 0.677 ± 0.0081; for GFLGVDLVYVVH it is 0.567 ± 0.033; for GFTHAPTVPSPE it is 0.745 ± 0.017.
Next, GFTLCPVSLGYF: 0.688 ± 0.017; GGAGGTGVRCGT: 0.669 ± 0.017; GGAPRSSGRAGE: 0.691 ± 0.028.
For GGAVAVRGGSAA, the protein stability index amounted to 0.636 ± 0.035.
Next, GGCCLWVGFLGG: 0.7016 ± 0.0021; GGCEWWAWGRGG: 0.727 ± 0.032; GGCIGAKSVGGG: 0.652 ± 0.027.
The figure for GGCRRGVQLFWD is 0.7236 ± 0.0023.
Next, GGCVGVLGGGGF: 0.659 ± 0.016.
In turn, GGDRGHVTGEVG had a protein stability index of 0.657 ± 0.06.
Consider GGEKEREEEDKE, for which the protein stability index is 0.625 ± 0.056.
As to GGFGGAWRGWAP, the protein stability index was 0.692 ± 0.016.
The figure for GGFLATAGLSVT is 0.673 ± 0.056.
Next, GGFNARVSPTRL: 0.709 ± 0.1; GGFRSVCGGVNW: 0.665 ± 0.011; GGGAGRGSRVWG: 0.746 ± 0.076.
GGGAIFDRLLCL showed a protein stability index of 0.6545 ± 0.0049.
The figure for GGGARWGWGGRM is 0.648 ± 0.033; for GGGCARRRGGRV it is 0.6958 ± 0.0049.
The sequence GGGDFDTLWDSR returned a protein stability index of 0.789 ± 0.03.
Next, GGGDRRRTARLS: 0.578 ± 0.027.
The figure for GGGEGRGGVEYG is 0.64 ± 0.037; for GGGERLDDIVGG it is 0.801 ± 0.081.
GGGEVLFHLRRA: the protein stability index turned out to be 0.673 ± 0.019.
Next, GGGEYHTIMRTT: 0.786 ± 0.2.
Next, GGGGCDVGGCVG: 0.675 ± 0.039.
The figure for GGGGGEAGVIGR is 0.892 ± 0.15; for GGGGGGACRPVG it is 0.659 ± 0.094.
In the case of GGGGGGAEGAGW, the protein stability index came out at 0.711 ± 0.02.
Next, GGGGGGGCGGDR: 0.654 ± 0.08; GGGGGGGGGGGV: 0.709 ± 0.053; GGGGGGGGRGWG: 0.63411 ± 1.7e-05.
The figure for GGGGGGGVAGGV is 0.715 ± 0.041.
The figure for GGGGGGIGVGMG is 0.705 ± 0.024.
Consider GGGGGGKEAVVR, for which the protein stability index was found to be 0.649 ± 0.053.
The figure for GGGGGMEPGCGP is 0.682 ± 0.043.
The sequence GGGGGREPGCGP returned a protein stability index of 0.707 ± 0.01.
The figure for GGGGGVGGVGRV is 0.668 ± 0.062; for GGGGGVGVEGEP it is 0.723 ± 0.067.
Next, GGGGGWVRWASG: 0.689 ± 0.064; GGGGLGRGKGCW: 0.706 ± 0.03; GGGGMASRGGNK: 0.685 ± 0.027.
Next, GGGGMGGCSDDG: 0.742 ± 0.17; GGGGRAALRWYG: 0.651 ± 0.014; GGGGSGRRIGCR: 0.696 ± 0.035.
GGGGSRGRVGDI returned a protein stability index of 0.7182 ± 0.0022.
The figure for GGGLLMVAASRC is 0.634 ± 0.014.
Next, GGGRAAIVRGGW: 0.682 ± 0.014; GGGRAEPLEPGV: 0.648 ± 0.07; GGGRGGAAEGAV: 0.781 ± 0.07.
The sequence GGGRRWPGGSGG had a protein stability index of 0.775 ± 0.075.
The figure for GGGRVSAGGDSG is 0.751 ± 0.071.
On to GGGVGLGGYGEG, for which the protein stability index is 0.636 ± 0.055.
Next, GGGVGMLRRSGG: 0.689 ± 0.054; GGGVSFWVGVVA: 0.656 ± 0.042; GGGWDWWFGVPG: 0.792 ± 0.13.
As to GGGWGGEAVRVW, the protein stability index stood at 0.65 ± 0.055.
In turn, GGGWGRVALGQG displayed a protein stability index of 0.612 ± 0.015.
The figure for GGHRRQGKKFTP is 0.711 ± 0.067.
The figure for GGKARKRKDKRA is 0.645 ± 0.1; for GGKNVKCLDRGL it is 0.693 ± 0.014; for GGLNIGIGYSVG it is 0.643 ± 0.1.
In turn, GGLRWVLGAQAV showed a protein stability index of 0.707 ± 0.063.
Turning to GGLVGSSVWGWG, the protein stability index was found to be 0.703 ± 0.04.
Consider GGLVVRCGVTSS, for which the protein stability index was 0.695 ± 0.15.
Take GGNKETKITRIE: the protein stability index was 0.698 ± 0.011.
The figure for GGPLDASICRSS is 0.694 ± 0.061.
The figure for GGPPPHHKTRPG is 0.603 ± 0.063; for GGPRDNEGSWWV it is 0.7122 ± 0.0029.
The figure for GGQGRYSAPPSR is 0.624 ± 0.02.
As for GGREDGKRGRQK, the protein stability index worked out at 0.684 ± 0.055.
The figure for GGRGFRGVLRSN is 0.696 ± 0.069.
Consider GGRGGEGLVREG, for which the protein stability index was 0.667 ± 0.019.
Next, GGRGRGMGGIFG: 0.667 ± 0.053; GGRGRRAGGSSG: 0.745 ± 0.016.
As for GGRGRRRGGVGG, the protein stability index was 0.701 ± 0.011.
GGRGRRWAGPRC: the protein stability index amounted to 0.702 ± 0.039.
Next, GGRGVVVGQGAG: 0.705 ± 0.027.
The figure for GGRGWAGRGGSG is 0.707 ± 0.052; for GGRPRGLVAGAA it is 0.657 ± 0.022; for GGRTEYILQLKK it is 0.686 ± 0.021.
GGRVARRGAERG gave a protein stability index of 0.654 ± 0.14.
Next, GGRVGGSMGVGG: 0.659 ± 0.028; GGRWMWWAGAAG: 0.79 ± 0.3.
Next, GGSSWSLGGGCG: 0.713 ± 0.023; GGTGRRRVGRRG: 0.696 ± 0.018.
The figure for GGTVAGLYILGF is 0.6301 ± 0.001; for GGVAADGGGGRG it is 0.675 ± 0.043.
